Measured values: US20240174744A1 (SCIRHOM, published 2024)

T1: hiR2-FL-P533-T7 (human iRhom2 full length with deletion of P533, 3 x T7 tag) (human, UniProt Q6PJF5 1-856)
T1 construct: The change is a deletion of one residue, not a substitution
T1 sequence: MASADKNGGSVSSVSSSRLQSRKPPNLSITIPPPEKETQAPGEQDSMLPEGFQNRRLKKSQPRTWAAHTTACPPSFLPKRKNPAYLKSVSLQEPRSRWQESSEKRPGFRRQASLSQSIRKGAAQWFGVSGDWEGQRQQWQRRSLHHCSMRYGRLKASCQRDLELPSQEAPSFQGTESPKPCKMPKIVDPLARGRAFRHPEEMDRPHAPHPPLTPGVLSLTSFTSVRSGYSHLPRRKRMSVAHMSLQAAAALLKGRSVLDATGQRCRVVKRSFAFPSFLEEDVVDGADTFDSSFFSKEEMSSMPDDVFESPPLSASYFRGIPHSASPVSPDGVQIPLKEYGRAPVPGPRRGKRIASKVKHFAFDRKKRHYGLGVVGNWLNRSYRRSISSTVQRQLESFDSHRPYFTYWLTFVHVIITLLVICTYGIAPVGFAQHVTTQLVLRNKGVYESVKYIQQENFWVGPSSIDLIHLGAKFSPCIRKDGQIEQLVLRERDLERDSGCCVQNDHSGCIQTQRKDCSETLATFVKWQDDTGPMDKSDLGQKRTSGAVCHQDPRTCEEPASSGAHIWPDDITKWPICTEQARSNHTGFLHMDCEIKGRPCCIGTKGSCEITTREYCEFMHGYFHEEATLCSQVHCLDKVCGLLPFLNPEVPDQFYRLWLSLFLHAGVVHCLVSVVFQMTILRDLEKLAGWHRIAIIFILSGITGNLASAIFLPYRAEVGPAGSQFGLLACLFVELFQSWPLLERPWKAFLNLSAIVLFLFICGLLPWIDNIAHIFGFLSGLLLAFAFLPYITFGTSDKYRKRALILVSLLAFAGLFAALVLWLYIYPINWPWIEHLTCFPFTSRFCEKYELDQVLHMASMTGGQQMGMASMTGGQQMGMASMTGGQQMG

T2: hiR1-FL-WT-T7 (human iRhom1 full length wild type C-terminally tagged with 3 consecutive copies of the T7 … (human, UniProt Q96CC6 1-855))
T2 construct: also called human iRhom1 variant expressed by MEF-DKO-hiR1-FL-WT-T7 cells
T2 sequence: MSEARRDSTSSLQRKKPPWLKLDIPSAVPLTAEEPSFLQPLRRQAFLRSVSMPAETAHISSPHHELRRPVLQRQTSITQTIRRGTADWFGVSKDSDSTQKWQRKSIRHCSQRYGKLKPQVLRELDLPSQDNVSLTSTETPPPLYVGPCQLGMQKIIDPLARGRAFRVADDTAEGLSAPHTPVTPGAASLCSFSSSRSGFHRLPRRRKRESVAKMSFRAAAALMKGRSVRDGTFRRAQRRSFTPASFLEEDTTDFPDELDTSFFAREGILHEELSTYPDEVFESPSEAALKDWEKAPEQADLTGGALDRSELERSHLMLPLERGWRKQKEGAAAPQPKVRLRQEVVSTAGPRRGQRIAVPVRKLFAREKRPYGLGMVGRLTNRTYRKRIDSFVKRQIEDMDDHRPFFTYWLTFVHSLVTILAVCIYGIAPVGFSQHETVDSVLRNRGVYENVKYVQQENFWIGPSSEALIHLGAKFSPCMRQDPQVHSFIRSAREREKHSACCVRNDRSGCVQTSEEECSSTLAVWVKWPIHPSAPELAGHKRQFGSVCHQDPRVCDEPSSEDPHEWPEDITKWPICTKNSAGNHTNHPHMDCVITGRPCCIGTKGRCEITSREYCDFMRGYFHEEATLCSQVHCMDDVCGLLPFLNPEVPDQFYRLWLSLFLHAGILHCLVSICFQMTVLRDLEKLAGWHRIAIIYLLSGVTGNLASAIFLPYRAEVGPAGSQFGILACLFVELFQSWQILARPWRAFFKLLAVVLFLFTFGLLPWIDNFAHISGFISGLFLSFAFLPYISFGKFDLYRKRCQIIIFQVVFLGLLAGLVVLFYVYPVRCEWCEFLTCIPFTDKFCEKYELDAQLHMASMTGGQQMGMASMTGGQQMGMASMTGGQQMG

T3: hiR2-FL-K536A-T7 (human iRhom2 full length K536A, 3 x T7 tag) (human, UniProt Q6PJF5 1-856)
T3 sequence: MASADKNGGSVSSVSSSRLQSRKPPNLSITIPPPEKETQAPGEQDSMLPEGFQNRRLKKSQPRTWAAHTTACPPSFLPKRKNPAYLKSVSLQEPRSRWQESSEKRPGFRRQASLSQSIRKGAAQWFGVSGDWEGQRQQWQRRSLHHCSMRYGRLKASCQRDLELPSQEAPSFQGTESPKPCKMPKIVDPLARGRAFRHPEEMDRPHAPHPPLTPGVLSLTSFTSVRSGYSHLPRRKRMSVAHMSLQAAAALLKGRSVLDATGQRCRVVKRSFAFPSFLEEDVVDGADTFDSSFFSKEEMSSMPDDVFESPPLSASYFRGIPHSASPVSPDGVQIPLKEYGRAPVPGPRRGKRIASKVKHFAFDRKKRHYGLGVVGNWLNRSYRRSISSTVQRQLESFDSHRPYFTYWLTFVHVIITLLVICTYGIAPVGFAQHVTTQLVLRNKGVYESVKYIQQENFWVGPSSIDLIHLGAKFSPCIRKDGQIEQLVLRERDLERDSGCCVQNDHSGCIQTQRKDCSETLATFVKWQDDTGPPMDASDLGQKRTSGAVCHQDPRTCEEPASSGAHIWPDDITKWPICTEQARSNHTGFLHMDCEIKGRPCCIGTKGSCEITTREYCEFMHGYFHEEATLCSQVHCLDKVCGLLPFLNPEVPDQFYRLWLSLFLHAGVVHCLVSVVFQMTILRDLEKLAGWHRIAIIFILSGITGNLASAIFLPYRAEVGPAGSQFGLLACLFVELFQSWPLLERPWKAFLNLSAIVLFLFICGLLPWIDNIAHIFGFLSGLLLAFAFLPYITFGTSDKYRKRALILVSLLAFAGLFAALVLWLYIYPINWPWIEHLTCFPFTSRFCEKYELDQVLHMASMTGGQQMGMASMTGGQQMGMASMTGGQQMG


Assays:
[1] = molecular target: T1, hiR2-FL-P533-T7 (human iRhom2 full …); assay: FACS on MEF-DKO-hiR2-FL-P533- -T7 cells
[2] = molecular target: T2, hiR1-FL-WT-T7 (human iRhom1 full length …); assay: FACS on MEF-DKO-hiR1-FL-WT-T7 cells
[3] = molecular target: T3, hiR2-FL-K536A-T7 (human iRhom2 full …); assay: FACS on MEF-DKO-hiR2-FL-K536A-T7 cells, PE anti-mouse IgG F(ab')2 detection

Binder | binding result [1] | binding result [2] | binding result [3]
antibody 3 (antibody, V domains shown, Mouse IgG, kappa light chain; also called clone #3; purified antibody 3) VH: QVTLKESGPGILQPSQTLSLTCSFSGFSLTTFAMGIGWVRQPSGKGLEWLAHIWWDGEKYNNPVLKSRLTISKDTSKNQVFLRIANVDTPDTATYYCARISSIYYIIDNWGQGTSVTVSS VL: DIVLTQSPATLSVTPGHSVSLSCRASQSISNNLHWYQKKSHESPRLLIKYVSQSISGIPSRFSGSGSGTDFTLSINSVETEDFGMYFCQQSYNWPLTFGAGTKLELK | no binding (tested: 3 µg/ml) | no binding (tested: 3 µg/ml) | –
antibody 5 (antibody, V domains shown, Mouse IgG, kappa light chain; also called clone #5; purified antibody 5) VH: QVTLKESGPGILQPSQTLSLTCSFSGFSLSTFGMGVGWIRQPSGKGLEWLAHIWWDDEKYYNSALKSRLTISKATSKNQAFLKIANVDTADTATYYCARISNYGSNYWYFNVWGTGTTVTVSS VL: QVVLTQSPALMSASPGEKVTMTCSAGSSVSCMYWYQQKPGSSPRVLIYDTSNLASGVPARFTGSGSGTSYSLTISRMEAEDAASYYCQQWNSYPLTFGAGTKLELK | – | – | no binding (tested: 3 µg/ml)
